Assay results from patent US20090175866A1, “TREATMENT OF B-CELL MALIGNANCIES” (priority 2004, published 2009).

Key:
FGFR3-G394D = biological target: T1, FGFR3-G394D (Homo sapiens, UniProt P22607, G382D); assay: FGF-stimulated growth of B9 cells expressing G394D-FGFR3; format: cell-based
T1 construct: expressed in transfected cells; host or cells: B9 cells
Procedure: (§1) Non-transformed rat chondrocyte cell line expressing PGFR3 in an inducible manner (RCJ-FGFR3) has been described previously (Rauchenberger R. et al. J. Biol. Chem. 2003; 278:38194-205). Cells were maintained in α-Minimum Essential Media supplemented with 15% fetal calf serum (FCS), 2 mM L-Glutamine, 100 U/ml penicillin, 100 μg/ml streptomycin, 600 μg/ml G418 (Gibco BRL, Ontario, Canada), 2 μg/ml Tetracyclin (Sigma, Ontario, Canada), and 50 μg/ml HygromycinB (Gibco BRL). FGFR3 expression was induced by removal of tetracyclin and serum starvation. […]
(§2) Cell viability was assessed by 3-(4,5-dimethylthiazol)-2,5-diphenyl tetrazolium (MTT) or (2,3-bis(2-methoxy-4-nitro-5-sulphophenyl)-5-[(phenylamino) carbonyl]-2H-tetrazolium hydroxide (XTT) dye absorbance where indicated. Cells were seeded in 96-well plates at a density of 20,000 (FDCP-1 cells), 5,000 (B9 cells) or 25,000 cells (MM cell lines) per well in culture medium. Cells were incubated in the absence or presence of one of the following cytokines: 10 ng/ml FGF9 and 5 μg/ml heparin, 1% murine IL-6, 50 ng/ml IGF-1 or 50 ng/ml human IL-6 where indicated and increasing concentrations of PRO-001, control antibody (purified human Fab) or 100 nM PD173074. […]

FGFR2 = biological target: T2, FGFR2 (Homo sapiens, UniProt P21802); assay: FGF-stimulated proliferation of FDCP-FGFR2 cells (XTT); format: cell-based; details: up to 10 fold higher concentrations than the FDCP-FGFR3 IC50
T2 construct: was transfected with full length FGFR1 (FDCP-FGFR1), FGFR2 (FDCP-FGFR2), FGFR3 (FDCP-FGFR3); expressed in transfected cells; host or cells: FDCP-1 mouse myeloid progenitor cell line
Source text: FIG. 1D is a graph showing proliferation of FGFR expressing FDCP cells in the presence of increasing concentrations of PRO-001 as determined by XTT analysis. Data are the average of duplicate cultures. The X axis represents concentration of PRO-001 Fab. The Y axis represents % inhibition.
Non-transformed rat chondrocyte cell line expressing PGFR3 in an inducible manner (RCJ-FGFR3) has been described previously (Rauchenberger R. et al. J. Biol. Chem. 2003; 278:38194-205). […]
as §2

8226 cells = assay: Viability of 8226 myeloma cells (MTT); format: cell-based, human; details: 5 μg/ml, cells lack FGFR3 expression
Source text: FIG. 2 is a graph showing the viability of human myeloma cell lines in the presence of PRO-001. Viability is reported as the ratio between the optical density (OD) in the presence of FGF±inhibitor and the OD in the absence of FGF.
as §1, with “BRL).” for “BRL). FGFR3 expression was induced by removal of tetracyclin and serum starvation.”
as §2

T1 sequence (P22607 23-806 G382D): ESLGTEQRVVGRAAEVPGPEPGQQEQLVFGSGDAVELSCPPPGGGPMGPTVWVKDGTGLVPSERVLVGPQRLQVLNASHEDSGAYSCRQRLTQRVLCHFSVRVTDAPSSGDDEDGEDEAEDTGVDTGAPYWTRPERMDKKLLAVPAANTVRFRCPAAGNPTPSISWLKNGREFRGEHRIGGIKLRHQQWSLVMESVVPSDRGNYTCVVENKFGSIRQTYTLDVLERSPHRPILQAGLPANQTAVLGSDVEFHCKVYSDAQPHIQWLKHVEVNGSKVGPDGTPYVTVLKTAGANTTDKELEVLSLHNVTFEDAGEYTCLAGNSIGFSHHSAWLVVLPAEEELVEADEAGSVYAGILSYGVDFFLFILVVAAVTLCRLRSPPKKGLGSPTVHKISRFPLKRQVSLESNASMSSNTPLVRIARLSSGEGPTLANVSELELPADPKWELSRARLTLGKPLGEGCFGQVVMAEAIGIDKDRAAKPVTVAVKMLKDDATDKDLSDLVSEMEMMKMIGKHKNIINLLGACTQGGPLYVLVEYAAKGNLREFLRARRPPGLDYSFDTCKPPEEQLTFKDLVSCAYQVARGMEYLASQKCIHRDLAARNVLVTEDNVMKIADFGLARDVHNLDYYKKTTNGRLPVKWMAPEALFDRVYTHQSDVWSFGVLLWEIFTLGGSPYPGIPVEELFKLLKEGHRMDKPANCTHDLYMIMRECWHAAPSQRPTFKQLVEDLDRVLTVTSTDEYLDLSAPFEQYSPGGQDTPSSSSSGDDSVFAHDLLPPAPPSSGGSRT
T2 sequence (P21802 22-821, species assumed): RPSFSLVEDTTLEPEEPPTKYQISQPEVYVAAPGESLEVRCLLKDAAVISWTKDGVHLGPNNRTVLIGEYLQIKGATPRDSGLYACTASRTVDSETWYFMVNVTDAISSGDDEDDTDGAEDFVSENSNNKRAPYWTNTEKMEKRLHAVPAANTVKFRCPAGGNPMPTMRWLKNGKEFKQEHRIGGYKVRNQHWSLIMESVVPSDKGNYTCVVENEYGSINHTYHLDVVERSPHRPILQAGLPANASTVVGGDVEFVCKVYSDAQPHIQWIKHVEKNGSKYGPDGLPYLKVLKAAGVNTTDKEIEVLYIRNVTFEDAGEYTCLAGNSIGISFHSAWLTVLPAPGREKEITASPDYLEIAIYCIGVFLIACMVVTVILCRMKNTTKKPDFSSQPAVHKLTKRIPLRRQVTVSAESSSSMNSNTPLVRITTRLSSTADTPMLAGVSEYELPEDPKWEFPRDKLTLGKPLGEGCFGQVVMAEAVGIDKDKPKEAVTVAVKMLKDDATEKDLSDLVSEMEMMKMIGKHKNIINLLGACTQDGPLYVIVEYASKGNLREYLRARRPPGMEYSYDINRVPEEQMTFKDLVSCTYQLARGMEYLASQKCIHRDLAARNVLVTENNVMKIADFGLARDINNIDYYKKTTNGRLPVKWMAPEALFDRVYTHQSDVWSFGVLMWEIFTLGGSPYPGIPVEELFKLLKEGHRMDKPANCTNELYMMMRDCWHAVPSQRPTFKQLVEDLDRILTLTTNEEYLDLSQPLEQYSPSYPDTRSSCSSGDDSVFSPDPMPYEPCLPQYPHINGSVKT

B1: PRO-001: human anti-FGFR3 Fab from HuCAL library; VH-CDR3 SEQ ID NO:1, VL-CDR3 SEQ ID NO:10; VH SEQ ID NO:19, VL SEQ ID NO:28 (antibody, V domains shown)
VH: QVQLQQSGPGLVKPSQTLSLTCAISGDSVSSNSAAWNWIRQSPGRGLEWLGRTYYRSKWYNDYAVSVKSRITINPDTSKNQFSLQLNSVTPEDTAVYYCARSYYPDFDYWGQGTLVTVSS
VL: DIELTQPPSVSVAPGQTARISCSGDALGDKYASWYQQKPGQAPVLVIYDDSDRPSGIPERFSGSNSGNTATLTISGTQAEDEADYYCQSYDGPDLWVFGGGTKLTVLGQ
- IC50, FGF-stimulated growth of cells expressing G394D-FGFR3 (FGFR3-G394D): approximately 3 μg/ml
- Proliferation of FDCP-1 cells expressing FGFR2 (FGFR2): unaffected
- Cell growth of 8226 cells in the presence of FGF (8226 cells): resistant
